We go through 5 molecules from patent publication US20240293499A1 (SUNNYBROOK RESEARCH INSTITUTE, published 2024).

Assay [1] addresses T1, hVISTA-COMP-his, pentameric form comprising the extracellular IgV domain of human VISTA (human, UniProt Q9H7M9 33-194).
T1 construct: domain: extracellular IgV domain; not shown: his tag
The assay is described as follows: SPR (BIAcore T200), single-cycle kinetics; hVISTA-COMP-his captured on anti-His chip, mAb as analyte; 1:1 Langmuir fit. As to the method:
(§1) Binding kinetics of mAbs and Nbs to hVISTA and mVISTA were obtained by surface plasmon resonance (SPR) using a BIAcore T200 (Cytiva) and HBS running buffer (20 mM of HEPES pH 7.4, 150 mM NaCl, 0.005% Tween-20, 3.4 mM EDTA). Briefly, anti-histidine antibodies were immobilized on a CM5 chip (29149604; Cytiva) using the His capture kit (28995056; Cytiva) following manufacture's protocol. For mAbs, VISTA was captured by flowing […] of hVISTA-COMP-his or mVISTA-COMP-his at a flow rate of 30 μL/min. Sensorgrams were collected using single-cycle kinetics covering five mAb concentrations (1:2 serial dilutions). For Nbs, solutions of each nanobody ([…]) were flown over an anti-histidine-coated chip. Five concentrations (1:2 serial dilutions) of hVISTA-Fc (produced in house) were then injected at a flow rate of 30 μL/min. KD, Kₒₙ, and Koff were calculated by analyzing the sensorgrams with a 1:1 Langmuir binding model²³ after subtracting reference sensorgrams.
Background: In SPR one partner is held on a chip, and binding of the other changes the refractive index at the surface.

For assay [2], the target named is T1, hVISTA-COMP-his, pentameric form …. The experiment in a line: SPR (BIAcore T200), single-cycle kinetics, hVISTA-COMP-his captured on anti-His chip, mAb injected at 2, 4, 8, 16, 32 nM, 1:1 fit. The protocol:
as §1

Assay [3] has as its target T2, human VISTA on primary human immune cells (CD14+CD16- classical monocytes of PBMCs) (human, UniProt Q9H7M9 33-311).
T2 construct: whole, on cells; Native protein on donor cells; also called hVISTA
T2 sequence (looked up): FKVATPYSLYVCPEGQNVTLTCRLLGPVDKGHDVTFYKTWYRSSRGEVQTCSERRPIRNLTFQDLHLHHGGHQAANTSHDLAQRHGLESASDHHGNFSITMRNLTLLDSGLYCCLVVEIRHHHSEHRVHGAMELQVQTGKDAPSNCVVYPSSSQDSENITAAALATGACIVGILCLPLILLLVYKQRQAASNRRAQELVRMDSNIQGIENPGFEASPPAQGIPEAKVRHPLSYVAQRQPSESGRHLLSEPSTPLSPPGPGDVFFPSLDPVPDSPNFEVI
The assay is described as follows: flow cytometry on human PBMC, gate CD14+CD16- monocytes, ΔMFI against isotype control, 5 donors; representative histogram against mIgG. The protocol:
(§2) Binding of mAbs and Nbs to human and murine immune cells were tested using human PBMCs and mouse splenocytes. For binding on human cells, whole human blood was obtained from donors in accordance with guidelines set forth by the Sunnybrook Research Ethics board (REB approval number 443-2017). Human peripheral blood mononuclear cells (PMBCs) were isolated from whole blood using Ficoll Paque PLUS (1.077 g/ml) (17144003; Cytiva). PBMCs had their Fc receptors blocked with Human TruStain FcX (422301; BioLegend) then incubated with 2.5 μg of mAb, mouse IgG1 (401408; BioLegend), or rat IgG2a (400565; BioLegend) or 15 μg Nb for 1 hour at 4° C. After washing with PBS, the PBMCs were incubated with secondary antibodies (1 μL; FITC anti-mouse IgG1, FITC anti-HA, or FITC anti-rat IgG2a; 406605, 901507, or MRG2a-83; BioLegend) or control FITC anti-VISTA antibodies (clone B7H5DS8; 11-1088-42; eBioscience) for 40 minutes at 4° C. […] Finally, the PBMCs were washed and resuspended in 3 μM DAPI (D1306; Thermo Fisher Scientific) and cytometric profiles recorded using a BD LSR II flow cytometer (BD) maintained by The Centre for Flow Cytometry & Scanning Microscopy (CCSM) at Sunnybrook Research Institute (SRI; Sunnybrook Health Sciences Centre, Toronto, ON, Canada). […]
In general terms: A flow cytometer gives signals particle by particle.

Assay [4] has as its target T1, hVISTA-COMP-his, pentameric form …. The experiment in a line: SPR (BIAcore T200), single-cycle kinetics, hVISTA-COMP-his captured on anti-His chip, mAb injected at 0.5, 1, 2, 4, 8 nM, 1:1 fit. As to the method: as §1
The target of assay [5] is T3, hVISTA-Fc (produced in house) (human, UniProt Q9H7M9 33-194, limits assumed).
T3 construct: Analyte in the SPR of the nanobodies; not shown: Fc
T3 sequence (looked up): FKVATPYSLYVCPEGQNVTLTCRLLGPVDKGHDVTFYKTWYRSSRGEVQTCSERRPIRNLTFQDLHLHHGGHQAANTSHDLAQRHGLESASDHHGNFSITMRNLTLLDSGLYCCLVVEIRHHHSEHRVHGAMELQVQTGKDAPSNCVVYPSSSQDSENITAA
The assay is described as follows: SPR (BIAcore T200), single-cycle kinetics; Nb captured on anti-His chip, hVISTA-Fc as analyte; 1:1 Langmuir fit. As to the method:
as §1

Assay [6] addresses T3, hVISTA-Fc (produced in house). The experiment in a line: SPR (BIAcore T200), single-cycle kinetics, Nb captured on anti-His chip, hVISTA-Fc injected at 1.9, 3.8, 7.5, 15, 30 nM, 1:1 fit. As to the method:
as §1

The target in assay [7] is T2, human VISTA on primary human immune …. The experiment in a line: flow cytometry on human PBMC, gate CD14+CD16- monocytes, ΔMFI against isotype control, 5 donors. As to the method:
as §2

The target in assay [8] is T1, hVISTA-COMP-his, pentameric form …. The experiment in a line: SPR (BIAcore T200), single-cycle kinetics, hVISTA-COMP-his captured on anti-His chip, mAb injected at 1, 2, 4, 8, 16 nM, 1:1 fit. The protocol: as §1
The target is the same in assay [9]. The experiment in a line: SPR (BIAcore T200), single-cycle kinetics, hVISTA-COMP-his captured on anti-His chip, mAb injected at 20, 40, 80, 160, 320 nM, 1:1 fit. The protocol: as §1
Assay [10] concerns the target T4, mVISTA-COMP-his, pentameric form comprising the extracellular IgV domain of murine VISTA (mouse, UniProt Q9D659 33-191).
T4 construct: domain: extracellular IgV domain; Captured on an anti-histidine chip for SPR of the mAbs; also called recombinant mouse VISTA; not shown: his tag
T4 sequence (Q9D659 whole entry, looked up): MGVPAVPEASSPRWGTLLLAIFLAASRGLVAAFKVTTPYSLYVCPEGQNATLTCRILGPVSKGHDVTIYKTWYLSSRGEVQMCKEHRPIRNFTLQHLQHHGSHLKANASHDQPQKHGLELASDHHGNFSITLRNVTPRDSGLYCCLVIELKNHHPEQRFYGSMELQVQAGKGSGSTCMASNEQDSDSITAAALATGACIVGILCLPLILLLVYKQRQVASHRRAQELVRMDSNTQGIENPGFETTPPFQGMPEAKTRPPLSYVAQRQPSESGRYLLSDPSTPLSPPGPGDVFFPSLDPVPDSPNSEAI
The assay is described as follows: SPR (BIAcore T200), single-cycle kinetics; mVISTA-COMP-his captured on anti-His chip, mAb as analyte; 1:1 Langmuir fit. As to the method:
as §1

The target in assay [11] is T4, mVISTA-COMP-his, pentameric form …. The assay is described as follows: SPR (BIAcore T200), single-cycle kinetics, mVISTA-COMP-his captured on anti-His chip, mAb injected at 20, 40, 80, 160, 320 nM, 1:1 fit. The protocol:
as §1

B1: murine anti-hVISTA mAb 8G10 (antibody, V domains shown)
VH: QVQLQQSGAELVRPGASVTLSCKASGYTFTDYEMHWVKQTPVHGLEWIGAIDPETGGTAYNQKFKGKATLTADKSSSTAYMELRSLTSEDSAVYYCTRWSLRPYAMDYWGQGTSVTVSS
VL: DVVMTHTPLSLPVSLGDQASISCRSSQSLVHNNGNTYLHWYLQKPGQSPKLLIYKVSNRFSGVPDRFSGSGSGTDFTLKISRVEAEDLGLYFCSQSTHVPWTFGGGTKLEIK
notes: Variable regions only, although headed 'Heavy Chain' and 'Light Chain'; Mouse IgG1 from hybridoma
For the molecule B1, the Kd (in general, the concentration at which binding is half-saturated) in [1] was 0.98 nM. In assay [2], the dissociation constant (Kd) was found to be 0.98 nM; the koff (in general, the first-order rate constant of dissociation) is 0.000111 s⁻¹; the kon (as a rule, the second-order rate constant of association) came out at 113000 M⁻¹ s⁻¹. Besides, in [3], the binding result is listed as “binds”.

B2: murine anti-hVISTA mAb 7E12 (antibody, V domains shown)
VH: DVHLQESGPGLVKPSQSLSLTCSVTGYSITSGYYWNWIRQFPGNKLEWMGYISYDGNNNYNPSLKNRISITRDTSKNQFFLKLNSVTTEDTATYYCARGDYGSEAMDYWGQGTSVTVSS
VL: DIRVTQSPASLAVSLGQRATISCRASKSVSTSGYSYMNWYQQKPGQPPQLLIYLASNLESGVPARFSGSGSGTDFTLNIHPVEEEDAAIYYCQHSRELPWTFGGGTKLEIK
notes: Mouse IgG1 purified from hybridoma
Take B2: in [1], the Kd amounted to 0.44 nM. In [4], this molecule returned a Kd of 0.442 nM, an off-rate (koff) of 0.000123 s⁻¹ and a kon of 279000 M⁻¹ s⁻¹.

B3: anti-hVISTA nanobody hVISTANb1 (VHH)
VHH: QVQLQESGGGLVQPGGSLRLSCAASGSVGTIFSMGWFRQAPGVQREMVATITNSGETNYAAFVKGRFTISRDNAENTVYLQMNSLKPEDTAAYYCNAFDYVGGRTYELPYWGQGTQVTVSS
notes: Llama nanobody made in E. coli WK6, purified by IMAC, detected with anti-HA
For the molecule B3, binding in assay [5] was characterised by a dissociation constant (Kd) of 11 nM. Besides, in [6], the equilibrium dissociation constant (Kd) was 10.8 nM, the koff was found to be 0.00109 s⁻¹ and the association rate constant (kon) was 102000 M⁻¹ s⁻¹.

B4: murine anti-hVISTA mAb 7G5 (antibody, V domains shown)
VH: QIQLVQSGPELKKPGETVKISCKASGYTFTNYGMNWVKQAPEKGLKWMGWINTYTGEPTYADDFKGRFAFSLETSASTAYLQINNLKNEDTATYFCARRSNPWPNDYWGQGTSLTVSS
VL: DIQMTQSPSSFSASLGERVSLTCRASQEISGYLSWLQQKPDGTIKRLIYAASTLDSGVPKRFSGSRSGSDYSLTISSLESEDFADYYCLQYASYPWTFGGGTKLEIK
notes: as for B1
Turning to B4, the binding result in assay [7] was “binds”. For the same molecule, the dissociation constant Kd in assay [1] is 0.14 nM; in [8], 0.136 nM.

B5: rat anti-hmVISTA mAb 7C7 (antibody, V domains shown)
VH: EVQLVESGGGLVQPGRSLKLSCVASGFTFNKYWMSWTRQAPGKGLEWVASITNSGGNTYYPDSVKGRFTISRDNAQNTLYLQMNSLRSEDTATYYCTLGVDYWGQGAMVTVSS
VL: DVVMTQTPPSLSVTIGQSVSISCKSSQSLVYSDGKTYLHWLLQSSGRSPKRLIYQVSNLASGVPDRFSGTGSQKDFTLKISRVEAKDLGVYYCAQTTHFPYTFGAGTKLEMK
notes: Variable regions only; Rat IgG2a from hybridoma
For the molecule B5, the Kd in assay [1] is 49 nM; in assay [9], 49.4 nM; in assay [10] it was 51 nM; in assay [11], 50.5 nM. Moreover, the koff in [9] turned out to be 2.2 s⁻¹; in assay [11] it was 0.002 s⁻¹. For the same molecule, the on-rate (kon) in [9] was 4.45e+07 M⁻¹ s⁻¹; in [11], 39600 M⁻¹ s⁻¹.
